# Patent US20250296985A1 (TRANSLATIONAL HEALTH SCIENCE AND TECHNOLOGY INSTITUTE, published 2025)
# Like-named read-outs stand apart in the source and are kept apart here.
# B1: THSC20.HVTR06 (antibody, V domains shown)
# VH: QLQLVQSGSELKKPGASVKVSCKASGYTFTKYTVNWVRQAPGQGLEWMGWINTNTGNPTSAQGFTGRFVFSLDTSVSTAYLHISSLKTEDTAVYYCARVLGDQQVVGGDDYYYYYAMDVWGQGTPVTVSS
# VL: SYELTQPPSVSVSPGQTASITCSGDKLGDKYASWYQQKPGQSPVLVIYQDTKRPSGIPERFSGSNSGNTATLTITGTQAMDETDYYCQAWDNSGWVFGGGTKLTVL
# B2: THSC20.HVTR88 (antibody, V domains shown)
# VH: QVQLVQSGAEVKKPGASVKVSCKASGYPFTSYVISWVRQAPGQGLEWMGWISAYNGNTDYAQKLQGRVTMTTDTSTSTAYMELRSLRSDDTAVYYCAREGKYSSGWSYSEYFDYWGQGTLVTVSS
# VL: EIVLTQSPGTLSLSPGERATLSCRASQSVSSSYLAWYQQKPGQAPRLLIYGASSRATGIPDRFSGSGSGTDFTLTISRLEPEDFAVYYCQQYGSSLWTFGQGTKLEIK
# B3: THSC20.HVTR39 (antibody, V domains shown)
# V domain 1: QVQLQESGPGLVRPSETLSLTCIVSGGSINSRSYSWGWIRQPPGKGLEWIGNVYYSGTTYYNPSLKSRVTISVDTSKNQFSLNLSSVTAADTAVYYCARNLFYYDRSGSSHHDAFDIWGQGTMVTVSS
# V domain 2: HGYVRPLSVAPGQTARITCGGNNIGSKSVHWYQQKPGQAPVLVVYGDGDRPSGIPERFSGSNSGNTATLTISRVEAGDEADYYCQVWDRGSDVWVFG
# B4: THSC20.HVTR55 (antibody, V domains shown)
# VH: EVQLVQSGAEVKKPGESLRISCKGSGFRFTNYWIGWVRQMPGKGLEWMGIIYPGDSDTRYSPSFQGQVTISADKSLSTAYLQWSSLQASDTAIYYCARRDRWELDPLDYWGQGTLVTVSS
# VL: DIVMTQSPSTLSASVGDRVTITCRASQSISSWLAWYQQKPGKAPNLLIYKASSLESGVPSRFSGSGSGTEFTLTISGLQPDDFATYYCQHYNGYPYTFGQGTKLEIK
# B5: THSC20.HVTR26 (antibody, V domains shown)
# VH: EVQLVESGGGLVQPGGSLRLSCAASGFTVSSNYMSWVRQAPGKGLEWVSAIYSGDSTYYADSVKGRFTISRHNPKNTLYLQMNSLRAEDTAVYYCARLVGALTNIVVSGDGGAFDIWGQGTMVTVSS
# VL: SYELTQPASVSGSPGQSITISCTGTSSDVGSYNLVSWYQQHPGKAPKLMIYEVSKRPSGVSNRFSGSKSGNTASLTISGLQAEDEVDYYCCSYAGSSTWVFGGGTKLTVL
# B6: THSC20.HVTR11 (antibody, V domains shown)
# VH: EVQLVQSGAEVKKPGSSVKVSCKASGGTFSSYTISWVRQAPGQGLEWMGRIIPILGIANYAQKFQGRVTITADKSTSTACMELSSLRSEDTAVYFCARIRGYSGYGSSYYFDYWGQGTLVTVSS
# VL: QSVLTQPPSVSGAPGQRVTISCTGSSSNIGAGYDVHWYQQLPGTAPKLLIYGNSNRPSGVPDRFSGSKSGTSASLAITGLQAEDEADYYCQSYDSSLSHEVFGGGTKLTVL
# B7: THSC20.HVTR04 (antibody, V domains shown)
# VH: QVQLVESGGGVVQPGRSLRLSCAASGFTFSNYAIHWVRQAPGKGLEWVAVVSYDGSNKYYAESVKGRFTISRDNSKNTLSLQMISLRPEDTAVYYCASVADTAMVPEWYFDLWGRGTLVTVSS
# VL: QSVLTQPRSVSGSPGQSVTISCTGTSSDVGAYNYVSWYQQHPGKAPKLMIYDVSARPSGVPDRFSGSKSGNTASLTISGLQAEDEADYYCCSYAGSWVFGGGTKLTVL
# Columns and labels:
# [1] = biological target: T1, Biotinylated wild type SARS-CoV-2 receptor binding domain (RBD) antigen (SARS-CoV-2, Wuhan isolate (wild type), UniProt P0DTC2 319-541)
# [2] = biological target: T1, Biotinylated wild type SARS-CoV-2 …; remark: listed apart in the source
Binder,Kd [1],koff [1],Kd [2],kon [1]
B1,0.635 nM,,,
B2,0.427 nM,,,
B3,0.513 nM,,,
B4,< 0.001 nM,< 1e-07 s⁻¹,,
B5,0.255 nM,,0.22 nM,
B6,< 0.001 nM,< 1e-07 s⁻¹,,103000 M⁻¹ s⁻¹
B7,0.196 nM,,0.19 nM,
